The text below walks through data of US20220073922.

Where only a bound is given, the exact number is not on record here.

Data set [1] concerns the target T1, Angiopoietin-2 (Ang2) (Homo sapiens) (UniProt O15123).
T1 sequence: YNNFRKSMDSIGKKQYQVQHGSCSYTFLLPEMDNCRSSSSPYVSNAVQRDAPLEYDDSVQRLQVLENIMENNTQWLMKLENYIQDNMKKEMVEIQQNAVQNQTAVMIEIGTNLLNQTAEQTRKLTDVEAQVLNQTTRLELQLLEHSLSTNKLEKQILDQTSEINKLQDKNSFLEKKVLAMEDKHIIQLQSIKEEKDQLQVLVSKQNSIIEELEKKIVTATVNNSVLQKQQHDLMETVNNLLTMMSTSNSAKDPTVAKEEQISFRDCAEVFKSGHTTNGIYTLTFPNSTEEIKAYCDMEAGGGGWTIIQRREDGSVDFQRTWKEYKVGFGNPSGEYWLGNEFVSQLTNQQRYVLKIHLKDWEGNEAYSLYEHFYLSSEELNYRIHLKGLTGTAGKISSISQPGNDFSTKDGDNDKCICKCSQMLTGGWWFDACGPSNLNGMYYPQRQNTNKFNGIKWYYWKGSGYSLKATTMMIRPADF
Nature of the data set: flow. The settings on record: 2'-F all nucleotides.

In data set [2] the target is T2, VEGF-121 (VEGFA isoform 121) (Homo sapiens) (UniProt P15692).
T2 sequence: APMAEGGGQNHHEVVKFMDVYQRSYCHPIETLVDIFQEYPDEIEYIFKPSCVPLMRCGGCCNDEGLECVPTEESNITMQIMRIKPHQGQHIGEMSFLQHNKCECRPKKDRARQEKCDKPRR
Briefly: flow. Conditions: 2'-F all nucleotides.

The subject of data set [3] is T3, VEGF (isoform not given) (Homo sapiens), P15692-9.
T3 sequence: T2 sequence
Nature of the data set: competition. The settings on record: 2'-F all positions; blocks VEGF-VEGFR2; isoform not stated.

[4] abbreviates: 1 hexaethylene glycol linker between aptamers [2'-F at all nucleotides 1-86, 1 hexaethylene glycol linker (H) between 38 and 39 left out].
The mark [5] stands for this setting: 2 hexaethylene glycol linkers between aptamers [2'-F at all nucleotides 1-86, 2 hexaethylene glycol linkers (HH) between 38 and 39 left out].
Where [6] appears, read: 3 hexaethylene glycol linkers between aptamers [2'-F at all nucleotides 1-86, 3 hexaethylene glycol linkers (HHH) between 38 and 39 left out].
Setting [7] is: 4 hexaethylene glycol linkers between aptamers [2'-F at all nucleotides 1-86, 4 hexaethylene glycol linkers (HHHH) between 38 and 39 left out].
Where [8] appears, read: 5 hexaethylene glycol linkers between aptamers [2'-F at all nucleotides 1-86, 5 hexaethylene glycol linkers (HHHHH) between 38 and 39 left out].
[9] abbreviates: 6 hexaethylene glycol linkers between aptamers [2'-F at all nucleotides 1-86, 6 hexaethylene glycol linkers (HHHHHH) between 38 and 39 left out].

Turning to “CGCAUAGAUAAGCCAACAAACAUUCUCUGUUAGUAUUUUCUGCG [AMS0525.8]”, the Kd in data set [1] (one internal hexaethylene glycol linker (H) [2'-F at 1-44, hexaethylene glycol linker H (left out) between C21 and A22], PBSMCT, 37 C) was found to be 0.085 nM. Sequence “CGCAUAGAUAAGCCAACAAAUUCUCUGUUAGUAUUUUCUGCG [AMS0525.7]” gave a Kd in data set [1] (one internal hexaethylene glycol linker (H) [2'-F at 1-42, hexaethylene glycol linker H (left out) between A20 and U21], PBSMCT, 37 C) of 0.093 nM.

In the case of “CGCUAGAUGGCUAACACUAUUGUGGAGAUGCACUAGCGCGCAUAGAUAAGCCAACAAACGUACAUUCUCUGUUAGUAUUUUCUGCG [AMSB103.1]”, the dissociation constant (Kd) in data set [1] (setting [4]) was determined as 0.026 nM; in data set [2] (setting [4]), 0.041 nM. For “CGCUAGAUGGCUAACACUAUUGUGGAGAUGCACUAGCGCGCAUAGAUAAGCCAACAAACGUACAUUCUCUGUUAGUAUUUUCUGCG [AMSB103.2]”, the Kd was determined as 0.034 nM in data set [1] (setting [5]) and 0.038 nM in data set [2] (setting [5]). “CGCUAGAUGGCUAACACUAUUGUGGAGAUGCACUAGCGCGCAUAGAUAAGCCAACAAACGUACAUUCUCUGUUAGUAUUUUCUGCG [AMSB103.3]”: the Kd in data set [1] (setting [6]) is 0.031 nM; in data set [2] (setting [6]), 0.036 nM. For “CGCUAGAUGGCUAACACUAUUGUGGAGAUGCACUAGCGCGCAUAGAUAAGCCAACAAACGUACAUUCUCUGUUAGUAUUUUCUGCG [AMSB103.4]”, the dissociation constant (Kd) in data set [1] (setting [7]) worked out at 0.032 nM; in data set [2] (setting [7]), 0.041 nM. Take “CGCUAGAUGGCUAACACUAUUGUGGAGAUGCACUAGCGCGCAUAGAUAAGCCAACAAACGUACAUUCUCUGUUAGUAUUUUCUGCG [AMSB103.5]”: the values for the Kd in data set [1] (setting [8]) and in data set [2] (setting [8]) were 0.027 nM and 0.038 nM, respectively.

On to “CGCUAGAUGGCUAACACUAUUGUGGAGAUGCACUAGCGCGCAUAGAUAAGCCAACAAACGUACAUUCUCUGUUAGUAUUUUCUGCG [AMSB103.6]”, for which the equilibrium dissociation constant (Kd) in data set [1] (setting [9]) was 0.034 nM; in data set [2] (setting [9]) it was 0.039 nM. Sequence “CGCUAGAUGGCUAACACUAUUGUGGAGAUGCACUAGCGCGCAUAGAUAAGCCAACAAACGUACAUUCUCUGUUAGUAUUUUCUGCG [AMSB103]” showed an IC50 in data set [3] of less than 0.1 nM.
